In patent US8492329B2, “Bioactive peptides and methods of using same” (Compugen Ltd., priority 2007, dated 2013):
No end group written: not given here.

Key:
[1] = biological target: LGR8 (RXFP2) (Homo sapiens, UniProt Q8WXD0); test: Competition with Europium labelled INSL3 binding to HEK-293T cells expressing LGR8; design: expressed in transfected cells; conditions: LGR8 HEK-293T, FIG. 10; for effect on binding of Europium-INSL3: 0.01 nM-10 μM
Experimental: The ability of Peptides P74C13V (SEQ ID NO: 10) and P59C13V (SEQ ID NO: 6) to compete with the binding of known ligands to LGR7 or LGR8 was tested by testing the ability of P74C13V (SEQ ID NO: 10) and P59C13V (SEQ ID NO: 6) to compete with the binding of Europium labelled H2 Relaxin or INSL3 (manufactured by the H. Florey institute) to stable HEK-293T cell lines expressing LGR7 or LGR8 respectively.
HEK-293T cell lines expressing LGR8 (RXFP2) were treated with Europium labeled INSL3 (manufactured by the H. Florey institute). The cells were then treated with decimal increasing concentrations (0.01 nM, 0.1 nM, 1 nM, 10 nM, 100 nM, 1 μM, 10 μM) of un-labeled INSL3 (as a positive control) and the tested peptides P59C13V (P59) (SEQ ID NO: 6), P59C13V-Amide (P59-Amide) (SEQ ID NO: 5), P59-S-Amide (P59S) (SEQ ID NO: 1) and P74C13V (P74) (SEQ ID NO: 10). The binding results are shown as a percentage of specific binding of the radioactive test INSL3 (where 100% is the baseline radiation level). […] This means that the binding affinity of the Eur-INSL3 was increased by binding/activity of the P59C13V (P59) (SEQ ID NO: 6) peptide on the LGR8 receptor.

[2] = biological target: T1, LGR7 (RXFP1) (Homo sapiens, UniProt Q9HBX9); test: cAMP accumulation (Hit Hunter cAMP kit) in CHO-K1 cells transiently transfected with LGR7; type: cell-based; design: expressed in transfected cells; host or cells: CHO-K1 (transient); conditions: for cAMP inhibition (Gi) effect: 1 uM, LGR7 CHO-K1 cells pre-treated with 10 uM Forskolin, FIG. 1; for cAMP dose response with Forskolin / Gs (cAMP increase) dose response without Forskolin: LGR7; for cAMP dose response with Forskolin: 10 uM Forskolin, 1 nM to 10 uM, FIG. 4A; for Gs (cAMP increase) dose response without Forskolin: low concentrations 3-100 nM, FIG. 4B
T1 sequence (Q9HBX9 1-757): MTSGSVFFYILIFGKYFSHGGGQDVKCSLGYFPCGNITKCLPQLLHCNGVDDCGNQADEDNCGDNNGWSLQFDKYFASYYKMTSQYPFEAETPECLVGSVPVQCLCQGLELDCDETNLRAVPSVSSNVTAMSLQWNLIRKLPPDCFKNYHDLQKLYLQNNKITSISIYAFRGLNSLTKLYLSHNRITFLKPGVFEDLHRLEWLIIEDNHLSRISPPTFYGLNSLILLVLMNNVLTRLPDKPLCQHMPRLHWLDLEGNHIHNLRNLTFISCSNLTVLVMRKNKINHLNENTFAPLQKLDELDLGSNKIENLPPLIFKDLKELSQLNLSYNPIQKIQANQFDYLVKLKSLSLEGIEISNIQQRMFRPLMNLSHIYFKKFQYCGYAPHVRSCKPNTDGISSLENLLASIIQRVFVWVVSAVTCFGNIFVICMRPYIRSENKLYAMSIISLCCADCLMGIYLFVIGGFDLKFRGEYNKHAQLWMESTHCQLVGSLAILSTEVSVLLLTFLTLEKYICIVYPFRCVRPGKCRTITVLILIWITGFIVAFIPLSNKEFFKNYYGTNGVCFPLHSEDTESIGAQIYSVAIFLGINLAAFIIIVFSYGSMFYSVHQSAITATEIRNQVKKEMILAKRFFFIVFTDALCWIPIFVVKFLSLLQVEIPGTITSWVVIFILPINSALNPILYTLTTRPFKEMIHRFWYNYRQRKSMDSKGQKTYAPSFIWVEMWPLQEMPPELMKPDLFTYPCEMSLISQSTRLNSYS
Experimental: The ability of Peptides to affect cAMP concentration was examined in CHO-K1 cells transiently transfected with LGR7 (RXFP1) or LGR8 (RXFP2). The experiment measured cAMP concentration in response to the addition of the peptides.
LGR7 (RXFP1) or LGR8 (RXFP2) were transiently transfected into CHO-K1 cells as follows: Cells (12 million) were plated into T75 flasks on the day preceding transfection. Cells were transfected with a GPCR DNA and Gα16 using a lipid technique according to the manufacturer's recommendation. Cells were transfected for 5 hours, then re-plated into 96-well dishes (60,000 cells per well) and grown overnight. Transfected cells were plated into 24 wells of a 96-well plate. Cells were pre-treated with 0.5 mM IBMX (stimulation buffer) for 10 min at 37° C., then stimulated with either a positive control (Relaxin 2) or a candidate peptide (for Gs functional examination), followed by stimulation or a preincubation with 10 μM forskolin (for Gi functional examination). Following a 20 minutes stimulation by incubation with 1 μM of either positive control or the tested peptides, either with or without forskolin, intracellular cAMP was assayed using the Hit Hunter cAMP kit (DiscoveRx Corporation) according to the manufacturer's recommended protocol. Data was converted to nmol of cAMP by running a standard cAMP curve.
Relaxin was used as a positive control. cAMP level was elevated by pre-treatment with forskolin.
The transfected CHO-K1 cells were treated with 10 uM of Forskolin (Applied cell sciences (ACS)) for 10 minutes and then challenged with 1 uM of H2 Relaxin (ACS) (as a positive control), 1 uM of Peptide P59C13V (P59) (SEQ ID NO: 6), and Peptide P74C13V (P74) (SEQ ID NO: 10).
CHO-K1 cells transiently transfected with LGR7 (RXFP1) were treated with 10 uM of Forskolin for 10 minutes and then challenged with either H2 Relaxin (as a positive control), P59C13V (P59) (SEQ ID NO: 6) or P74C13V (P74) (SEQ ID NO: 10) at increasing concentrations, from 1 nm to 10 uM (FIG. 4A) and from 3 nM to 100 nM (FIG. 4B). cAMP concentrations were determined at each point, as described above with (FIG. 4A) or without (FIG. 4B) the presence of Forskolin.

Sequence of LGR8 (RXFP2) (Q8WXD0 whole entry): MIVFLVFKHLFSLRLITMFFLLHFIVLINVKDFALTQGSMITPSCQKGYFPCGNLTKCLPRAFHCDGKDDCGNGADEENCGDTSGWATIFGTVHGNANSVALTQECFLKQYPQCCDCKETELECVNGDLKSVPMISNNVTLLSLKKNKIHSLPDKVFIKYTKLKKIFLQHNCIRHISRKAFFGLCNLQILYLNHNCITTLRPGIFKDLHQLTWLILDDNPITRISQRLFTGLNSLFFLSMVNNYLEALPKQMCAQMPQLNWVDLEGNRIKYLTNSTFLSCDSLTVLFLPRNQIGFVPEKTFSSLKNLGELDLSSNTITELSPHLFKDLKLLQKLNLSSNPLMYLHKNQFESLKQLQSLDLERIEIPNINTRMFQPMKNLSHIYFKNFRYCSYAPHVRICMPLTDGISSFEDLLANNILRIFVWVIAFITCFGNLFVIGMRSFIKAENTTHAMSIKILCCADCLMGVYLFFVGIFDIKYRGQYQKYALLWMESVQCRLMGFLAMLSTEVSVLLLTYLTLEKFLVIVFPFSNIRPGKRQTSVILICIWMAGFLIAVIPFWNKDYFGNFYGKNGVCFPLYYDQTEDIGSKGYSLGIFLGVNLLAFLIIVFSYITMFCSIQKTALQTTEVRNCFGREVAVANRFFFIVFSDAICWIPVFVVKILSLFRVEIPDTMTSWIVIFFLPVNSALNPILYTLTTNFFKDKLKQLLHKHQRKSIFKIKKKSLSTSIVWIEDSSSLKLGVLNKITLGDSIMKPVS

Substance | effect on binding of Europium-INSL3 [1] | specific binding of Europium-INSL3 ([1]; at 1 nM and higher concentrations, 100% is baseline) | cAMP inhibition (Gi) effect [2] | cAMP dose response with Forskolin [2] | Gs (cAMP increase) dose response without Forskolin [2]
AYAAFSV-Amide (AYAAFSV-NH2) [Peptide P59-S-Amide] | less apparent |  |  |  | 
GQKGQVGPPGAAVRRAYAAFSV [Peptide P59C13V] | positive cooperative or allosteric effect | ~125% | clear cAMP inhibition (Gi) effect | bell-shaped curve | dose dependent increase in cAMP
GQKGQVGPPGAAVRRAYAAFSV-Amide (GQKGQVGPPGAAVRRAYAAFSV-NH2) [P59C13V-Amide] | less apparent |  |  |  | 

Further lines, results first:

effect on binding of Europium-INSL3 [1] | specific binding of Europium-INSL3 ([1]; at 1 nM and higher concentrations, 100% is baseline) | cAMP inhibition (Gi) effect [2] | cAMP dose response with Forskolin [2] | Gs (cAMP increase) dose response without Forskolin [2] | Substance
less apparent |  | clear cAMP inhibition (Gi) effect | no significant effect |  | GQKGQVGPPGAAVRRAYAAFSVGRRAYAAFSV-OH [Peptide P74C13V]
 |  | affected only the LGR7 (RXFP1) receptor | dose dependent decrease (Gi) effect | dose dependent increase in cAMP | H2 Relaxin: H2 Relaxin (ACS), positive control, known ligand of LGR7 (RXFP1) [reference compound]
